Biological target: T1, Rat Robo1 tagged with the hemagglutinin (Robo1-HA) (rat, UniProt O55005 26-1651)
T1 construct: Roundabout homolog 1 (Robo1), rat; The sentence with the Kd calls it Robo2, the methods name only rat Robo1-HA; also called Robo-HA; HA-Robo; source: HEK293, transfected
Experiment: binding of alkaline phosphatase-tagged ligand to transfected cells; HEK293 cells transfected with FL APP or HA-Robo incubated with serial dilutions of supernatants with AP-tagged Slit2 and 1 μg/ml heparin, 2 h at 37°C; AP activity in cell lysates; Hill equation, Scatchard plot
Settings: partners not purified

T1 sequence (O55005 26-1651): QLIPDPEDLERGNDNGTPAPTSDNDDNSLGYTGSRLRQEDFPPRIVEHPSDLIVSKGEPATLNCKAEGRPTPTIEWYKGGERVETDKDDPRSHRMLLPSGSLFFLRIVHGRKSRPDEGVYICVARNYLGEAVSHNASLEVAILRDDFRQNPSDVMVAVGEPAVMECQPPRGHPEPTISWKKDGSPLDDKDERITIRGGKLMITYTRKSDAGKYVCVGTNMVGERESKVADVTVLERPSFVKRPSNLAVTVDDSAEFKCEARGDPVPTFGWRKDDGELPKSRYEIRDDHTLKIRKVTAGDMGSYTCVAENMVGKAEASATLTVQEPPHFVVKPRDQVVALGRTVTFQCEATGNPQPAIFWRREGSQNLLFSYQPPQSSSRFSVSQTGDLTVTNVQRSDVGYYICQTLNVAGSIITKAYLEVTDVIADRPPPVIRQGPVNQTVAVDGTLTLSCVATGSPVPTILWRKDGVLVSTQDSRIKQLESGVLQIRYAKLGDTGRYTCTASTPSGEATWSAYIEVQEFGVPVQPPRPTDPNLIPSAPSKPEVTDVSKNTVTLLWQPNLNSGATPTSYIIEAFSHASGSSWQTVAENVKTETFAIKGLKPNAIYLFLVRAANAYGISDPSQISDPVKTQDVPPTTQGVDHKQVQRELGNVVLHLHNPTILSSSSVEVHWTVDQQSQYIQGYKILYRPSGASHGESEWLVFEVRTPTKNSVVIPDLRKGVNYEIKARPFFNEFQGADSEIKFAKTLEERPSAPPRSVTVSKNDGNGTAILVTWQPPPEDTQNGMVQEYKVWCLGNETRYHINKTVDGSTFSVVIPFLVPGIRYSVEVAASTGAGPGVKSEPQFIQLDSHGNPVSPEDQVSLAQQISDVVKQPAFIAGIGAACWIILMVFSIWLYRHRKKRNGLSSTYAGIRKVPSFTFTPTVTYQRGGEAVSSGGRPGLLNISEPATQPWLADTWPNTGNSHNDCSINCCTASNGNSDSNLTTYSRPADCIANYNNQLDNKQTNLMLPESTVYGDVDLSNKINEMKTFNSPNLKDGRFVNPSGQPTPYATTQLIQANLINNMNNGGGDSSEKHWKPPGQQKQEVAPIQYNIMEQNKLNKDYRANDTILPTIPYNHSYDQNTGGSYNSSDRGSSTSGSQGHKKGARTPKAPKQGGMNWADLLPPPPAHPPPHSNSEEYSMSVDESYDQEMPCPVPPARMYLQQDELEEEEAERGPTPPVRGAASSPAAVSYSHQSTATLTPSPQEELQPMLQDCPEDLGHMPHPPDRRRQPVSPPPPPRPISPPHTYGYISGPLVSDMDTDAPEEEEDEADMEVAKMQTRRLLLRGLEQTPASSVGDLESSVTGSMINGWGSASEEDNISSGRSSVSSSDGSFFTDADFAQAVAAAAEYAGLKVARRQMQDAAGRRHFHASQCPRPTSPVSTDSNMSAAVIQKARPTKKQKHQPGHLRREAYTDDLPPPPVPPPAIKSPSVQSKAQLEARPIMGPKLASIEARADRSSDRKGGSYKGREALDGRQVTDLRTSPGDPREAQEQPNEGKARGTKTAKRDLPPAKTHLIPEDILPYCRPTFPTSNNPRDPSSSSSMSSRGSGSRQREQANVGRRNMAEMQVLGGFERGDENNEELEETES

B1: FL Slit2 fused N terminally to the human alkaline phosphatase sequence (ligand, UniProt O94813 31-1529, looked up)
chain: QCSCSGSTVDCHGLALRSVPRNIPRNTERLDLNGNNITRITKTDFAGLRHLRVLQLMENKISTIERGAFQDLKELERLRLNRNHLQLFPELLFLGTAKLYRLDLSENQIQAIPRKAFRGAVDIKNLQLDYNQISCIEDGAFRALRDLEVLTLNNNNITRLSVASFNHMPKLRTFRLHSNNLYCDCHLAWLSDWLRQRPRVGLYTQCMGPSHLRGHNVAEVQKREFVCSGHQSFMAPSCSVLHCPAACTCSNNIVDCRGKGLTEIPTNLPETITEIRLEQNTIKVIPPGAFSPYKKLRRIDLSNNQISELAPDAFQGLRSLNSLVLYGNKITELPKSLFEGLFSLQLLLLNANKINCLRVDAFQDLHNLNLLSLYDNKLQTIAKGTFSPLRAIQTMHLAQNPFICDCHLKWLADYLHTNPIETSGARCTSPRRLANKRIGQIKSKKFRCSAKEQYFIPGTEDYRSKLSGDCFADLACPEKCRCEGTTVDCSNQKLNKIPEHIPQYTAELRLNNNEFTVLEATGIFKKLPQLRKINFSNNKITDIEEGAFEGASGVNEILLTSNRLENVQHKMFKGLESLKTLMLRSNRITCVGNDSFIGLSSVRLLSLYDNQITTVAPGAFDTLHSLSTLNLLANPFNCNCYLAWLGEWLRKKRIVTGNPRCQKPYFLKEIPIQDVAIQDFTCDDGNDDNSCSPLSRCPTECTCLDTVVRCSNKGLKVLPKGIPRDVTELYLDGNQFTLVPKELSNYKHLTLIDLSNNRISTLSNQSFSNMTQLLTLILSYNRLRCIPPRTFDGLKSLRLLSLHGNDISVVPEGAFNDLSALSHLAIGANPLYCDCNMQWLSDWVKSEYKEPGIARCAGPGEMADKLLLTTPSKKFTCQGPVDVNILAKCNPCLSNPCKNDGTCNSDPVDFYRCTCPYGFKGQDCDVPIHACISNPCKHGGTCHLKEGEEDGFWCICADGFEGENCEVNVDDCEDNDCENNSTCVDGINNYTCLCPPEYTGELCEEKLDFCAQDLNPCQHDSKCILTPKGFKCDCTPGYVGEHCDIDFDDCQDNKCKNGAHCTDAVNGYTCICPEGYSGLFCEFSPPMVLPRTSPCDNFDCQNGAQCIVRINEPICQCLPGYQGEKCEKLVSVNFINKESYLQIPSAKVRPQTNITLQIATDEDSGILLYKGDKDHIAVELYRGRVRASYDTGSHPASAIYSVETINDGNFHIVELLALDQSLSLSVDGGNPKIITNLSKQSTLNFDSPLYVGGMPGKSNVASLRQAPGQNGTSFHGCIRNLYINSELQDFQKVPMQTGILPGCEPCHKKVCAHGTCQPSSQAGFTCECQEGWMGPLCDQRTNDPCLGNKCVHGTCLPINAFSYSCKCLEGHGGVLCDEEEDLFNPCQAIKCKHGKCRLSGLGQPYCECSSGYTGDSCDREISCRGERIRDYYQKQQGYAACQTTKKVSRLECRGGCAGGQCCGPLRSKRRKYSFECTDGSSFVDEVEKVVKCGCTRCVS
notes: Slit2, full length, put in place of Netrin 5 in the vector Ntn5.a-AP-His (Addgene); also called AP-tagged Slit2; alkaline phosphatase (AP)-tagged Slit2; source: HEK293T, transfected, in supernatant; not shown: alkaline phosphatase (human), C-terminal, kept
Question: With B1 as the binder, how does the Kd read?
Answer: 19.6 nM
